Experimental data from article PMC6167357 (2018).
Several values for one entry are separate records, joined by “and”; a condition that tells them apart may be missing. Equal entries are not always repeated.

Biological target: F-actin (Sus scrofa)
Assay: co-sedimentation

Kd: ~17 µM and ~7 µM
B1: titin N2A Ig80-IS-Ig81-Ig82-Ig83 (protein)
chain: SIRVVEKTTATFIAKVGGDPIPNVKWTKGKWRQLNQGGRILIHQKGDEAKLEIRDTTKTDSGLYRCVAFNKHGEIESNVNLQVDERKKQEKIEGDLRAMLKKTPALKKGSGEEEEIDIMELLKNVDPKEYEKYARMYGITDFRGLLQAFELLKQSQEEETHRLEIEELEKSERDEKEFEELVAFIQQRLTQTEPVTLIKDIENQTVLKDNDAIFEIDIKINYPEIKLSWYKGTEKLEPSNKYEISIDGDRHTLRVKNCQPKDQGNYRLVCGPHIASAKLTVIEPAWERHLQDVTLKEGQTCTMTCQFSVPNVKSEWFRNGRVLKPQGRVKTEVEHKVHKLTIADVRAEDQGQYTCKHEDLETSAELRIEAEPIQFTKRIQNIVVSEHQSATFECEVSFDDAIVTWYKGPTELTESQKYNFRNDGRCHYMTIHNVTPDDEGVYSVIARLEPRGEARSTAELYLTTKEIKLEMKPPDIPDSRVPIPTMPIRAVPPEEIPPAVAPSIPLLLPLP
